Experimental data: PMC3200309 (Cell, 2011)
Blank lines part the entries; values can stand above or below the binder they belong to.

What was measured:
[1] = molecular target: scFv45 (conformation-sensor single chain variable fragment, purified from E. coli) (chicken); assay: SPR
[2] = molecular target: PTP1B-CASA mutant (C215A, S216A), PTP1B (1-321) (Homo sapiens, UniProt P18031, Cys215 to Ala | Ser216 to Ala); assay: SPR

Kd [1]: 46 nM
koff [1]: 0.0023 s⁻¹
B1: PTP1B-OX, PTP1B (1-321) reversibly oxidized with H2O2 (domain or fragment)
chain: MEMEKEFEQIDKSGSWAAIYQDIRHEASDFPCRVAKLPKNKNRNRYRDVSPFDHSRIKLHQEDNDYINASLIKMEEAQRSYILTQGPLPNTCGHFWEMVWEQKSRGVVMLNRVMEKGSLKCAQYWPQKEEKEMIFEDTNLKLTLISEDIKSYYTVRQLELENLTTQETREILHFHYTTWPDFGVPESPASFLNFLFKVRESGSLSPEHGPVVVHCSAGIGRSGTFCLADTCLLLMDKRKDPSSVDIKKVLLEMRKFRMGLIQTADQLRFSYLAVIEGAKFIMGDSSVQDQWKELSHEDLEPPPEHIPPPPRPPKRILEPHN
modifications: active site Cys215 reversibly oxidized (cyclic sulfenyl-amide: S of Cys215 linked to the main-chain N of Ser216)

Kd [2]: 52 nM
B2: scFv45 (conformation-sensor single chain variable fragment, purified from E. coli) (scFv, V domains shown)
VH: TVTLDESGGGLQAPGGALSLVCKASGFTFSSYDMGWIRQAPGKGLEYVAGITDNGRYASYGSAVDGRATISRDNGQSSVRLQLNNLRAEDTGTYYCARDDGSGWTGNSIDAWGHGTEVIVSS
VL: LTQPSSVSANPGGTVKITCSGSSSAYGYGWYQQKSPGSAPVTVIYNNNKRPSNIPSRFSGSKSGSTGTLTITGVQAEDEAVYFCGSEDSSTDAIFGAGTTLTVL
